Results: patent publication US20230192839A1 (published 2023)
Residue numbers refer to the chain shown, from its start.

B1: P01_C05 scFv-Fc fusion (scFv, V domains shown)
VH: QVQLVESGGGLVQAGGSLRLSCAASRRSSRSWAMHWVRQAPGKGLEWVAVISYDGRLKYYADSVKGRFTISRDNAEYLVYLQMNSLRAEDTAVYYCAAEQWGTNDGPDGGMDYWGQGTLVTVSS
VL: DIQMTQSPSSLSASVGDRVTITCRASQTIGSHLNWYQQKPGKAPKLLIYGTSNLQSGVPSRFSGSGSGTDFTLTISSLQPEDFATYYCQQSYSSPLTFGQGTKVEIK
notes: Tested as scFv-Fc fusion
B2: P04_C05 scFv-Fc fusion (scFv, V domains shown)
VH: QVQLVESGGGLVQAGGSLRLSCAASRRSSRSWAMHWVRQAPGKGLEWVAVISYDGRLKYYADSVKGRFTISRDNAEYLVYLQMNSLRAEDTAVYYCAAGLPWTDYWGQGTLVTVSS
VL: QSVLTQPPSASGTPGQRVTISCSGSNSNIGSNYVSWYQQLPGTAPKLLIYSNNQRPSGVPDRFSGSKSGTSASLAISGLRSEDEADYYCAAWDDRLSVVFGTGTKLTVL
notes: Tested as scFv-Fc fusion
B3: P02_D08 scFv-Fc fusion (scFv, V domains shown)
VH: QVQLVESGGGLVQAGGSLRLSCAASRRSSRSWAMHWVRQAPGKGLEWVAVISYDGRLKYYADSVKGRFTISRDNAEYLVYLQMNSLRAEDTAVYYCAAERGDGLDGNVGLDIWGQGTLVTVSS
VL: DIQMTQSPSSLSASVGDRVTITCRASQSISKYLNWYQQKPGKAPKLLIYGASTLQSGVPSRFSGSGSGTDFTLTISSLQPEDFATYYCQQSYSSGTFGQGTKVEIK
notes: Tested as scFv-Fc fusion
B4: P04_C09 scFv-Fc fusion (scFv, V domains shown)
VH: QVQLVESGGGLVQAGGSLRLSCAASRRSSRSWAMHWVRQAPGKGLEWVAVISYDGRLKYYADSVKGRFTISRDNAEYLVYLQMNSLRAEDTAVYYCAAEANESDSGGIDVWGQGTLVTVSS
VL: B3 VL with S28T, S30G, K31G, G50A, T53S, S91G, T96A
notes: Tested as scFv-Fc fusion
B5: P08_C08 scFv-Fc fusion (scFv, V domains shown)
VH: B3 VH with R100G, G101S, D102G, G103S, L104T, N107S, V108G, G109A, L110I, I112V
VL: B3 VL with S30G, K31S, G50A, T53S, T96S
notes: Tested as scFv-Fc fusion
B6: P01_B02 scFv-Fc fusion (scFv, V domains shown)
VH: QVQLVESGGGLVQAGGSLRLSCAASRRSSRSWAMHWVRQAPGKGLEWVAVISYDGRLKYYADSVKGRFTISRDNAEYLVYLQMNSLRAEDTAVYYCAAADWYSGGGDALDIWGQGTLVTVSS
VL: B3 VL with S28T, S30Y, K31N, T53N, S91T, G95P
notes: Tested as scFv-Fc fusion
B7: P02_C02 scFv-Fc fusion (scFv, V domains shown)
VH: QVQLVESGGGLVQAGGSLRLSCAASRRSSRSWAMHWVRQAPGKGLEWVAVISYDGRLKYYADSVKGRFTISRDNAEYLVYLQMNSLRAEDTAVYYCAAEGGMGLDPWGQGTLVTVSS
VL: B3 VL with S28T, K31S, G50A, T53N, Q55H
notes: Tested as scFv-Fc fusion
B8: P07_C04 scFv-Fc fusion (scFv, V domains shown)
VH: B6 VH with A99E, D100P, W101D, Y102G, S103E, G105T, G106N, D107G, A108G
VL: B3 VL with S28N, K31R, G50S, T53S, S56T, T96A
notes: Tested as scFv-Fc fusion
B9: P16_E06 scFv-Fc fusion (scFv, V domains shown)
VH: B1 VH with Q100G, W101G, G102D, T103Y, N104P, D105G, G106T, P107S, M111L, Y113I
VL: B3 VL with K31N, T53S, S94A
notes: Tested as scFv-Fc fusion
B10: P01_F05 scFv-Fc fusion (scFv, V domains shown)
VH: B6 VH with A99G, D100P, W101D, Y102R, S103W, G104A, G106Y, L109F, I111V
VL: B1 VL with G30N, S31T, T51A, S56G, S94T
notes: Tested as scFv-Fc fusion
B11: P02_D09 scFv-Fc fusion (scFv, V domains shown)
VH: QVQLVESGGGLVQAGGSLRLSCAASRRSSRSWAMHWVRQAPGKGLEWVAVISYDGRLKYYADSVKGRFTISRDNAEYLVYLQMNSLRAEDTAVYYCAAEEGDGGFFDYWGQGTLVTVSS
VL: QSVLTQPPSASGTPGQRVTISCSGSSSNIGSNYVNWYQQLPGTAPKLLIYRNNERPSGVPDRFSGSKSGTSASLAISGLRSEDEADYYCAAWDGSLSGRGVFGTGTKLTVL
notes: Tested as scFv-Fc fusion
B12: P02_A10 scFv-Fc fusion (scFv, V domains shown)
VH: QVQLVESGGGLVQAGGSLRLSCAASRRSSRSWAMHWVRQAPGKGLEWVAVISYDGRLKYYADSVKGRFTISRDNAEYLVYLQMNSLRAEDTAVYYCAAESEWDTGGFDVWGQGTLVTVSS
VL: B3 VL with S30G, K31S, G50S, A51S, T53N, S93T
notes: Tested as scFv-Fc fusion
B13: P03_G12 scFv-Fc fusion (scFv, V domains shown)
VH: B12 VH with E99D, S100P, E101T, W102E, D103G, T104W, G105S, G106Y, F107L, V109Y
VL: B3 VL with S28G, K31S, T53R, S91G
notes: Tested as scFv-Fc fusion
B14: P03_H04 scFv-Fc fusion (scFv, V domains shown)
VH: B3 VH with E99D, R100P, G101H, L104Y, D105G, N107G, V108P, L110F, I112Y
VL: QSVLTQPPSASGTPGQRVTISCSGSSSNIGSNYVYWYQQLPGTAPKLLIYRSNQRPSGVPDRFSGSKSGTSASLAISGLRSEDEADYYCAAWDDTLSAVVFGTGTKLTVL
notes: Tested as scFv-Fc fusion
B15: P02_B03 scFv-Fc fusion (scFv, V domains shown)
VH: QVQLVESGGGLVQAGGSLRLSCAASRRSSRSWAMHWVRQAPGKGLEWVAVISYDGRLKYYADSVKGRFTISRDNAEYLVYLQMNSLRAEDTAVYYCAADQDVGSVGNYYGNGMDVWGQGTLVTVSS
VL: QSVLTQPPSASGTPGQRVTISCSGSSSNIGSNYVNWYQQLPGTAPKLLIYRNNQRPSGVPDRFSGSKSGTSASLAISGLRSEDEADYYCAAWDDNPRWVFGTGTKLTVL
notes: Tested as scFv-Fc fusion
B16: P02_E08 scFv-Fc fusion (scFv, V domains shown)
VH: B12 VH with E99S, S100D, E101Y, W102D, D103G, T104G, G106L, V109L
VL: B14 VL with S26N, S31D, Y35H, R51M, S52N, A91T, T95S, A98G
notes: Tested as scFv-Fc fusion
B17: P01_H04 scFv-Fc fusion (scFv, V domains shown)
VH: B3 VH with E99D, R100M, G101D, G103M, D105S, G106Y, N107Y, V108N, G109S, L110F
VL: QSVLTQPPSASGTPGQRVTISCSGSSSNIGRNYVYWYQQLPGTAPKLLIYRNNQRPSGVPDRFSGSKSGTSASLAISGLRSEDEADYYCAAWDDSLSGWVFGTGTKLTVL
notes: Tested as scFv-Fc fusion

Biological target: T1, human CD33 antigen (human, UniProt P20138 18-259, limits assumed)
T1 construct: whole entry named; also called Siglec-3
T1 sequence (P20138 18-259 limits assumed): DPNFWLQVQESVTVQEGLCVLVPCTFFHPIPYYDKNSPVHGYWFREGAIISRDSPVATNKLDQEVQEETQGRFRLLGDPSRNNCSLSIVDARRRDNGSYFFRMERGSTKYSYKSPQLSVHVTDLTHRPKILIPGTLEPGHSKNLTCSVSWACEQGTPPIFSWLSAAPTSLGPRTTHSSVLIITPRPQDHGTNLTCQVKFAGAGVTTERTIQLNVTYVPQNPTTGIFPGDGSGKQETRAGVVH
Assay: SPR (Biacore T200), 37 C, scFv-Fc, 10 uM MTX
Protocol: (§1) All binding kinetics analysis was performed on label-free Biacore surface plasmon biosensors (Biacore T200™ from GE Life Sciences) at 37° C. in 10 mM Hepes pH 7.4, 150 mM NaCl, 0.05% Tween-20 (HBST+), with or without 10 µM MTX. The Biacore data were processed in Biacore T200 Evaluation Software, and the data were double-referenced (Myszka, 1999, J Mol Recognit 12(5):279-284) and fit globally to a simple Langmuir with mass transport model to determine the equilibrium dissociation constant, KD, from the ratio of the kinetic rate constants (KD = koff/kₒₙ). In some cases the binding of antigen was very low (or not detectable) in the presence of 10 µM MTX and as a result kinetic rate constants could not be accurately determined. In these cases, a KD (or KD limit) was estimated based on the binding response at the highest analyte concentration tested or based on the typical limit of detection for a Biacore T200.
“*”: For interactions where kₒₙ and koff are reported, the KD was calculated using koff/kₒₙ.

Row | Kd [nM] | koff [s⁻¹] | kon [M⁻¹ s⁻¹] | Binder
1 | 44.7 | 0.0045 | 100000 | B1
2 | 298 | 0.013 | 45000 | B2
3 | 705 | 0.062 | 88000 | B3
4 | 205 | 0.0089 | 44000 | B4
5 | 547 | 0.051 | 94000 | B5
6 | 1.6 | 0.0006 | 390000 | B6
7 | 221 | 0.025 | 110000 | B7
8 | 144 | 0.025 | 170000 | B8
9 | 1170 | 0.087 | 75000 | B9

Biological target: T1, human CD33 antigen
Assay: SPR (Biacore T200), 37 C; KD at 10 uM MTX / KD at 0 uM MTX
Protocol: as §1

Row | Ratio: KD with MTX / KD without MTX | Binder
10 | > 92.5 | B10
11 | 0.5 | B1
12 | > 20.4 | B11
13 | 12 | B2
14 | 7.1 | B3
15 | 17.7 | B4
16 | > 17.3 | B12
17 | > 83 | B13
18 | 7.6 | B5
19 | 0.1 | B6
20 | 1 | B7
21 | 4.7 | B8
22 | > 43 | B14
23 | 12.7 | B9
24 | > 2 | B15
25 | > 3.4 | B16

Biological target: T1, human CD33 antigen
Assay: SPR (Biacore T200), 37 C, scFv-Fc, 0 uM MTX
Protocol: as §1

Row | Kd [nM] | koff [s⁻¹] | kon [M⁻¹ s⁻¹] | Binder
26 | 143 | 0.01 | 71000 | B10
27 | 86 | 0.0066 | 76000 | B1
28 | 456 | 0.018 | 40000 | B11
29 | 25 | 0.0021 | 83000 | B2
30 | 100 | 0.0061 | 61000 | B3
31 | 12 | 0.0018 | 160000 | B4
32 | 523 | 0.044 | 84000 | B12
33 | 132 | 0.0094 | 71000 | B13
34 | 72 | 0.0045 | 63000 | B5
35 | 19 | 0.0026 | 140000 | B6
36 | 213 | 0.02 | 92000 | B7
37 | 31 | 0.0029 | 95000 | B8
38 | 366 | 0.026 | 72000 | B14
39 | 92 | 0.011 | 120000 | B9
40 | 170 | 0.023 | 140000 | B15
41 | 211 | 0.01 | 47000 | B16

Biological target: T2, human epidermal growth factor receptor antigen (human, UniProt P00533 25-645, limits assumed)
T2 construct: whole entry named; also called EGFR
Assay: SPR (Biacore T200), 37 C; KD at 10 uM MTX / KD at 0 uM MTX
Protocol: as §1
(§2) The first 4 rounds of panning used biotinylated EGFR antigen captured on streptavidin or neutravidin coated 96-well plates. […] 1536 clones were randomly chosen from the 4th and 5th round of panning against the EGFR antigen and their binding specificity determined by phage ELISA.

Row | Ratio: KD with MTX / KD without MTX | Binder
42 | > 2 | B17

Biological target: T2, human epidermal growth factor receptor …
Assay: SPR (Biacore T200), 37 C, scFv-Fc, 0 uM MTX
Protocol: as §1, §2

Row | Kd [nM] | koff [s⁻¹] | kon [M⁻¹ s⁻¹] | Binder
43 | 889 | 0.076 | 85000 | B17
